Experimental data published in publication PMC7817217 (2020).

Biological target: SARS-CoV-2 spike protein receptor binding domain (RBD) (SARS-CoV-2, UniProt P0DTC2 319-541)
Experiment: SPR

B1: bACE2-Rm residues 19 to 615 fused to the mouse Fc tag (bACE2-Rm-mFc) (Fc fusion)
chain: STTEDEAKKFLDKFNSKAEDLSYESSLASWDYNTNISDENVQKMDEAGAKWSAFYEEQSKLAKNYPLEEIQNDTVKRQLQILQQSGSPVLSEDKSKRLNSILNAMSTIYSTGKVCKPNNPQECLLLEPGLDNIMGTSKDYNERLWAWEGWRAEVGKQLRPLYEEYVVLKNEMARGYHYEDYGDYWRRDYETEESSGPGYSRDQLMKDVDRIFTEIKPLYEHLHAYVRAKLMDTYPLHISPTGCLPAHLLGDMWGRFWTNLYPLTVPFGQKPNIDVTDAMLNQGWDANRIFKEAEKFFVSVSLPKMTEGFWNKSMLTEPGDGRKVVCHPTAWDLGKGDFRIKMCTKVTMEDFLTAHHEMGHIQYDMAYASQPYLLRNGANEGFHEAVGEVMSLSVATPKHLKTMGLLSPDFREDDETEINFLLKQALNIVGTLPFTYMLEKWRWMVFKGEIPKEEWMKKWWEMKREIVGVVEPVPHDETYCDPASLFHVANDYSFIRYYTRTIFEFQFHEALCRIAQHNGPLHKCDISNSTDAGKKLHQMLSVGKSQAWTKTLEDIVDSRNMDVGPLLRYFKPLYTWLQEQNRKSYVGWNTDWSPYAD
Kd: 500 nM
